Patent US20230287060, “PROTEINS AND THEIR USE FOR NUCLEOTIDE BINDING” (The University of Western Australia, published 2023)

Target: T1, cPPR-Telo1 (synthetic construct)
T1 chain: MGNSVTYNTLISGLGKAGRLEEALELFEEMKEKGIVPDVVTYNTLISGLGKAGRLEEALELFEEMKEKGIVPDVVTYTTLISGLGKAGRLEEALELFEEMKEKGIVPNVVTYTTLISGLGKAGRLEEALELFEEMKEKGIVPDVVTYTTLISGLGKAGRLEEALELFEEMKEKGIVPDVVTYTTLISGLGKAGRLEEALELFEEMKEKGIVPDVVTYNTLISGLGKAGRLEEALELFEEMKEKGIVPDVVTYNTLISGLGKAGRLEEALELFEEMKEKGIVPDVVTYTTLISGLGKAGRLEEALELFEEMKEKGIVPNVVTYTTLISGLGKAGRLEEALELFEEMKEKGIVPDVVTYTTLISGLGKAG
Experiment: structure; co-crystal structure 2.0 A, PDB 5ORQ; protein/DNA 1:2; 100 mM sodium acetate pH 4.6, 20 mM CaCl2, 22% MPD
Conditions: tags: GST and His tags (pETM30, E. coli)
Description: Crystals of cPPR-Telo1 were grown at 23° C. by the sitting drop vapour diffusion method by mixing 1 μl protein (5 mg/ml) with an equal volume of reservoir solution (100 mM sodium acetate pH 4.6, 20 mM calcium chloride, and 40% MPD). In addition, cPPR-Telo1 was incubated with target ssDNA oligonucleotide (TTAGGGTTAG) at a protein/DNA molar ratio of 1:2 for 30 min at 4° C. and crystallized in 100 mM sodium acetate pH 4.6, 20 mM calcium chloride, and 22% MPD. For both cPPR-Telo1 and cPPR-Telo1/ssDNA a single-wavelength anomalous dispersion dataset was collected at the K-edge of selenium at beam line ID30A-3 (ESRF, Grenoble, France). […] Acta Crystallogr D Biol Crystallogr 66, 213-21 (2010) was used as a starting model for manual building in COOT (Emsley, P. & Cowtan, K. Coot: model-building tools for molecular graphics. Acta Crystallogr D Biol Crystallogr 60, 2126-32 (2004) interspersed with refinement in Buster (version 2.10.3) (Smart, O. S. et al. Exploiting structure similarity in refinement: automated NCS and target-structure restraints in BUSTER. Acta Crystallogr D Biol Crystallogr 68, 368-80 (2012), which rendered a final model (Table 1) that had no Ramachandran outliers as assessed by MOLPROBITY (Lovell, S. C. et al. Structure validation by Calpha geometry: phi,psi and Cbeta deviation. […]

TTAGGGTTAG (ssDNA) [telomeric ssDNA target 10-mer]: binds.
